{"source": "patent US20250243261A1", "biological_target": "SARS-CoV-2 BQ.1.1 Spike RBD (SARS-CoV-2 BQ.1.1 variant)", "experiment": "BLI, IgG", "data": [{"substance": "LY-1404 WT IgG (antibody)", "values": [{"measurement": "Kd", "result": 1.7, "unit": "µM"}]}]}
